In the supplement of paper PMC12636428:

system: Saccharomyces cerevisiae; test: transcriptional activation domain activity (GFP:mCherry ratio, weighted mean of sorted bins, harmonized to initial dataset scale) (arbitrary fluorescence ratio units); higher = stronger transcriptional activation; settings: beta-estradiol 1 µM; induction time 4 h
Summary of the method: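 For this assay, yeast diploids with a GFP reporter carried barcoded protein tiles at URA3, each fused to an estradiol-inducible synthetic transcription factor. Induction was a 1:5 dilution into SC with 1 uM beta-estradiol for 4 hours at 30 °C, followed by sorting into 8 bins by GFP:mCherry ratio and barcode sequencing. Tiles under 50 reads were dropped, and activation activity was calculated as the read-weighted mean of bin median fluorescence, averaged across barcodes and linearly mapped onto the initial dataset scale.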

Row | Sequence | transcriptional activation domain activity
1 | KQYCVRPNSGRIEPGRDVEVQVLLQAMREDPPPDAKCRDKFLVQSVAVTADKE | 44900
2 | KGGGAGGGKRAKKEESSDDEAAKPLAKRGKGTANGRANGKARASSAAPVDNQK | 44600
3 | CFILLHLVLSFFALSCLYCLVLLLLPLPLILLFLLSSPWKFVPVHLQRHFVVV | 68600
4 | MRGLCRSLKLCKLFVTMFDGWMMLFSFFFFFLFLLFFYYYSCCSDGFLLCFFL | 42500
5 | FGVKKVHHEIRSHVRLYYQSIGTSLLKGYERMDMVDIFKALRQCFLAIVLLFR | 53600
6 | GMHSGDGEFVPFYAPVVVEGPVEAWLLEIEATMRVTLRKLLLGCILALKKAKK | 61300
7 | ERDRKEQNGGGEGGRGGRHKKGARGAERRGHGSGSEGGGKAGANPERRTGGRG | < 6570
8 | LNMLGLALAASGHFPYAVKYDGAIVVANFNMAILMRNEVFGRLLYLLVNTLFA | 71600
9 | RWIRVRKHMVLAATLVEPFTESVVLSIICASSLKYLFGVWLWISICVHFALWA | 48100
10 | MALYLTFRHCPELFYWVKLRRVSRKIHTFISSIFNIFLYVLMLMNGCIIHHYI | 57200
11 | ENVYRPFLMVYTEAIILIFSFYLIILYIVLFTFLEGYPYIFSRVYGISDSLTF | 40900
12 | GKKKKAKKAEVRKARAKASDRAKAKAKAAGPSRASKKAAAPARAKSGDGGKDK | 21600
13 | CEMQFAKDTVVRRYCLLLECLELLPVSAIKAVTRMLHRIVVKCGCVAMFFKMS | 70400
14 | FIDAAGKGGELRWNPHNKRYHLVGAEEGGKEDALSAPNKPTKPNPVLVCIYGQ | 69000
15 | EEEKPKEEKPKEEKPEEEKPEEQKPEEEKPKEKPEEQKPEAPAPTPAPEPAPE | 23200
16 | AQLTLRAIVSSKEAGVIIGKGGKNVADLRDETGVKAGVSKVVQGVHDRVLTIT | 29600
17 | NGLENAASVITILDKSSNGTFINGEKIGKGQQRLLKDGNEVSFGVCVRSTENN | 24500
18 | AAAAALRTEETADSAGQLAEAGCRSVDTADTAEGCLEEMAVVVVAVASSVGAM | 55600
19 | VLTLTFNDGKKHEDLSKQLLFVIHDIFSCDQNSPGYVLLRLLRSFLVLDVYMS | 65000
20 | GEGEGEVEAEVPTAAANEPVLEVQPKEPEPEAPAQPQQQPAAVKTTRPAPVSH | 28800
21 | KRKPRRPVRVDKDPEEEEEEDKEEEEEEEEDPRGKEKKKAKPKRKAKAKAAED | 21400

Row | Sequence | transcriptional activation domain activity
22 | NEEQTINLINYVLTCSNTVIRNTVFRNKVLNLLVSMILALKTPDYFIIFKIVV | 74300
23 | PFLTTYPESYVHRAFEFGRVFDYRWTVNWRMIPEKTFVSTWFAHQLLLCHVIA | 56500
24 | ASTETPLPVPKRRGRPPKNNNAAGIVVFDGGEEAPAVKKRGRPKKVTEPVAST | 23100
25 | ASDYAIGQFRYLKRLILVHGEWSYARNANMIVNFFYKNILGIGVLWWFQIYCG | 39100
26 | GPLLFVEIRAGFFPLYYPFSFLCLSGFVFELGHYPSGSFVPGVLLSWSLNFII | 53700
27 | RARRNSDSSIIDKAAQEKEDRRRRERRREREREEKDRDGKSSSTRKVRKPQGL | 26200
28 | RLKLFIMVVFCLGTIHEYALIGMYWSILISCRRSMSLECTTKLPWQMVLGVFM | 49800
29 | MSWPDRGYYYCLMVISLLSAKLMHLFSHFTALPLILFLLYLPTFLLLDLLVVF | 60500
30 | RDGMRQGTHSTKGRADVRGSTRKAAPQKGRGRARMGSLRAPHIRGGGIAFGPK | 24000
31 | FFLALSFRDALAATSMMNLNNCMADPLLGKWVCQLLPSLTSILMFTVELVLFF | 63800
32 | LSKRPGKPPARPSPQAAVQRRSFHATSSALASKDPYKTLGVGKSASASEIKKA | 39500
33 | FGRSKAKRRAGRGFGTSGYGAGSSASNGGKDAKGGDTKGAENRYHDNKDEDND | 38200
34 | CFSILFSRFAGPSIYLGMRILIMLLYVTLTLWTPWLFYFWVSILSLCIAPFLF | 44300
35 | DLVFGIIIVRSLLIPVVLVFFFTFACFHIYLSHTSFFPAFYSSILGFHPLAFS | 73300
36 | MESHSFLPICRYFWGVMPQLMPSFYLNLLSWFSLCFIVFHWLHTVVIFPYLLL | 49200
37 | AAPAAADPTPKKRGRPPRVSGAAEVAAAPEPAAEQPKKGRGRKAAEPAPEPVV | 23100
38 | IIPKIYFYGGYKGLLLFISSLSLTLLCYILITRPILSFLIVSDIVLNVIINIY | 63400
39 | VGGEANGEVVKRKSKKKGGKEETDTEVVDGEDQSSRKVATRKLSRGKAEKKAK | 48900
40 | ITLYPPNPYTNEPVPIRPISYLHLSGLLNMYVIRRLRRENWIRIFFRILFPFF | 26700
41 | VGSAINTRLTTPKLVDSPKRPGCLSISRKDQHETYLSLLMRLVVASKMCLSAY | 50800
42 | FCFFLFLLSFSSCYFFFLLLFLPLTFSSLLFLPIYFFSSSSSSFFLPFLFVSL | 43000
